Reference: paper PMC8216470, “The structure of the mouse ADAT2/ADAT3 complex reveals the molecular basis for mammalian tRNA wobble adenosine-to-inosine deamination” (Nucleic Acids Research, 2021)

B1: mouse ADAT2 (enzyme, UniProt Q6P6J0 1-191, looked up)
chain: MEEKVESTTTPDGPCVVSVQETEKWMEEAMRMAKEALENIEVPVGCLMVYNNEVVGKGRNEVNQTKNATRHAEMVAIDQVLDWCHQHGQSPSTVFEHTVLYVTVEPCIMCAAALRLMKIPLVVYGCQNERFGGCGSVLNIASADLPNTGRPFQCIPGYRAEEAVELLKTFYKQENPNAPKSKVRKKDCQKS
notes: tRNA-specific adenosine deaminase 2 (ADAT2), mouse, full-length gene amplified from E16.5 cortices, NCBI NM_025748.4; cloned in pnCS, which codes for no fusion tag; residues 11-176 seen in the electron density; the untagged pnCS construct is told only for the co-expression; also called A2; ADAT2/ADAT2 (homodimer, when produced alone); source: E. coli BL21(DE3), co-expressed with ADAT3, purified …
B2: Escherichia coli TadA (enzyme, E. coli, UniProt P68398 1-167, looked up)
chain: MSEVEFSHEYWMRHALTLAKRAWDEREVPVGAVLVHNNRVIGEGWNRPIGRHDPTAHAEIMALRQGGLVMQNYRLIDATLYVTLEPCVMCAGAMIHSRIGRVVFGARDAKTGAAGSLMDVLHHPGMNHRVEITEGILADECAALLSDFFRMRRQEIKAQKKAQSSTD
notes: tRNA-specific adenosine deaminase TadA, Escherichia coli; also called E. coli TadA; source: produced and purified using the same protocol as for the ADAT complex (E. coli BL21(DE3); Talon, 3C protease, HiTrap Q, Superdex 200)

Biological target: the molecule itself
Test: SEC; oligomeric state of the protein produced alone, as assessed by size exclusion chromatography

Protein	stoichiometry N
B1	2
B2	2
